The target in experiment [1] is T1, Human IL-25 (made from human (HEK) sources) (human, UniProt Q9H293 33-177).
T1 sequence (looked up): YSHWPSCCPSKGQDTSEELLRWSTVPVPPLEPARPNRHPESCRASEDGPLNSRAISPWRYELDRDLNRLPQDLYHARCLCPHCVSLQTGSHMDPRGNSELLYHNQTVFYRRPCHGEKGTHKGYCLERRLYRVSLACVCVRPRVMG
The experiment in a line: cell-based or functional assay.

The target in experiment [2] is T2, mouse IL-25 (made from mouse (NSO) source) (mouse, UniProt Q8VHH8 17-169).
T2 sequence (looked up): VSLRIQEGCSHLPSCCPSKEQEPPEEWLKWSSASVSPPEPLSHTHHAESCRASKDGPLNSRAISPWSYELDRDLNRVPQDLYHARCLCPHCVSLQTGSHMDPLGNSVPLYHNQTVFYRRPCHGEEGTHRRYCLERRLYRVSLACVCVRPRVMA
The experiment in a line: cell-based or functional assay.

Experiment [3] addresses T2, mouse IL-25 (made from mouse (NSO) …). The experiment in a line: binding affinity, method not stated; mouse IL-25 made in NSO.
The next experiment concerns the target T3, Cyno Monkey IL-25 (HEK) (cynomolgus monkey, UniProt G7P9V9 33-176).
T3 construct: also called Cyno Monkey (HEK)
T3 sequence: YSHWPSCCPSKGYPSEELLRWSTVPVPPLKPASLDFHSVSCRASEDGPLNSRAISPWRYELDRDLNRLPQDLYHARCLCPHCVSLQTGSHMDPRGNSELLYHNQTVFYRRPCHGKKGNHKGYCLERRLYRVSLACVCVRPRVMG
The experiment in a line: binding affinity, method not stated; cyno monkey IL-25 made in HEK.

Experiment [4] concerns the target T1, Human IL-25 (made from human (HEK) …). Kind of experiment: binding affinity, method not stated; human IL-25 made in HEK.

The term Kd denotes the constant that tells how readily two partners part at equilibrium.

B1: humanized anti-IL-25 antibody LNR125.38 (antibody, V domains shown)
VH: QVTLKESGPTLVKPTQTLTLTCTFSGFSLSTSGMGVGWIRQPPGKALEWLAHIWWDDVKRYNPSLKSRLTITKDTSGSQVVLTMTNMDPVDTATYYCARTLPHFHDYWGQGTTLTVSS
VL: DIQMTQSPSTLSASVGDRVTITCRASSSVSYMYWYQQKPGKAPKPLIYRTSNLASGVPSRFSGSGSGTEYTLTISSLQPDDFATYYCKQYHSYPPTWTFGGGTKVEIKR
Take B1: the “Potency IC50 in HT29 cell assay” value in experiment [1] was 100 µg/mL; in experiment [2], 780 µg/mL. The Kd was determined as 96 pM in experiment [3], 235 pM in the experiment with Cyno Monkey IL-25 (HEK) and 51 pM in experiment [4].

B2: anti-IL-25 antibody LNR125 (antibody, V domains shown)
VH: QVTLKVSGPGILQPSQTLSLTCSFSGFSLNTSGMGVGWIRQPSGKGLEWLAHIWWDDVKRYNPALKSRLTISKDTSGSQVFLKIASVDTADTATYYCARTLPHFFDYWGQGTTLTVSS
VL: DIQMTQSPAIMSASPGEKVTISCRASSSVSYMYWYQQKSGSSPKPWIYRTSNLASGVPARFSGSGSGTSYSLTISSMEAEDAATYYCKQYHSYPPTWTFGGGTKLEIKR
As for B2, the “Potency IC50 in HT29 cell assay” value in experiment [1] turned out to be 120 µg/mL; in experiment [2] it was 130 µg/mL. Also, the dissociation constant Kd in experiment [3] was determined as 168 pM; with Cyno Monkey IL-25 (HEK), 170 pM; in experiment [4], 128 pM.

The values are drawn from patent US20250170238A1 (LANIER BIOTHERAPEUTICS, published 2025).
